From the RNAGym collection of RNA variant scans (doi:10.1073/pnas.2313332121)

B1: TPR t1 (parent)
chain: GACCAAUCUGCCCUCAGAGCUCGAGAACAUCUUCGGAUGCAGAGGAGGCAGGCUUCGGUGGCGCGAUAGCGCCAACGUCCUCAACCUCCAAUGCAUCCCACCACAUGAUGAUGCCUGAAGAGCCUUGGUUUUUUG

Variants of: B1
Experiment: polymerase ribozyme fitness, log enrichment relative to wild type (log ratio); higher = more active; in vitro selection for triplet polymerase activity
How it was run: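 Mutant libraries of each subunit of a heterodimeric triplet polymerase ribozyme were built by PCR and transcribed. Each library went through one round of in vitro selection in triplicate: annealing with biotinylated primer, partner subunit and triplets, frozen incubation at −7 °C, gel excision of extended constructs, streptavidin-bead capture and RT-PCR. Input and output libraries were Illumina-sequenced; only genotypes with ≥10 input reads and ≥1 read per output were kept. Fitness is log2(genotype enrichment/wild-type enrichment), using inverse-variance-weighted replicate averages.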

Going from A27U A41U to C15U C114U, the “polymerase ribozyme fitness (log ratio)” value rises from -4.42 to -2.91.

Going from G61U U78C A83U to C15A G57U, the “polymerase ribozyme fitness (log ratio)” value falls from -0.564 to -2.02.

Compared with C88A U129G, A16G A29U C40A G61U is lower in “polymerase ribozyme fitness (log ratio)” value: -1.51 for the first, -4.63 for the second.

Compared with A2C G47A G93U, G10C C64U C123G U133A is higher in “polymerase ribozyme fitness (log ratio)” value: -5.29 for the first, 1.47 for the second.

Compared with G45U C62U, U54C U87A is higher in “polymerase ribozyme fitness (log ratio)” value: -1.63 for the first, 0.213 for the second.

First: G36A C115U
Second: G61U U81G
The “polymerase ribozyme fitness (log ratio)” value of the first is higher: -1.88 for the first, -2.74 for the second.

First: C49G C101U U131C
Second: C11G G77U
The “polymerase ribozyme fitness (log ratio)” value of the first is lower: -0.189 for the first, 0.134 for the second.

Going from C3U C28A C72G U112A to C80A U87G, the “polymerase ribozyme fitness (log ratio)” value rises from -3.66 to -2.88.

First: C11A U38G G48C C115G G122U
Second: G36A A46U G57U C104U
The “polymerase ribozyme fitness (log ratio)” value of the first is lower: -2.9 for the first, -1.52 for the second.

Compared with U9G G51C C56G C80G A119U, C11U C114A is lower in “polymerase ribozyme fitness (log ratio)” value: -0.301 for the first, -1.22 for the second.

First: C3U A27U
Second: G60A C72G
The “polymerase ribozyme fitness (log ratio)” value of the first is lower: -4.17 for the first, -1.01 for the second.

Going from U81A C97U to C13U C62A, the “polymerase ribozyme fitness (log ratio)” value rises from -1.89 to -0.888.

Compared with C40A C70U, U54C G69A U112C is higher in “polymerase ribozyme fitness (log ratio)” value: -0.716 for the first, -0.483 for the second.

First: C11A G63C
Second: G10U C53G U55A C56A G63A
The “polymerase ribozyme fitness (log ratio)” value of the first is higher: -1.78 for the first, -2.18 for the second.

First: G69C G71U
Second: C15A G39A U87G U112G
The “polymerase ribozyme fitness (log ratio)” value of the first is lower: -4.82 for the first, -2.16 for the second.

Going from C70U C76G G77A G113C to A26U A46U, the “polymerase ribozyme fitness (log ratio)” value falls from -3.85 to -4.63.

Compared with G10C U87C, G42C G71A C72A C115U is lower in “polymerase ribozyme fitness (log ratio)” value: -1.18 for the first, -5.81 for the second.

First: A111C G128A
Second: G51A C56G
The “polymerase ribozyme fitness (log ratio)” value of the first is higher: -1.07 for the first, -2.03 for the second.

Going from G19A G60A C101A U106A A119U C123U to G42C G128C, the “polymerase ribozyme fitness (log ratio)” value rises from -5 to -4.09.

Compared with G71C G122A, C22G C98U is lower in “polymerase ribozyme fitness (log ratio)” value: -2.06 for the first, -4.52 for the second.

C40G C49A G77A C115A and C13A G60U C72U A91U G120A are within 0.2 log units of each other in “polymerase ribozyme fitness (log ratio)” value: -2.4 for the first, -2.35 for the second.

Going from A26U U38A to U32G G35U C40U C86U A121U, the “polymerase ribozyme fitness (log ratio)” value falls from -4.53 to -5.02.

Compared with C72A U125C, G45U C72A C114A C123G U133A is lower in “polymerase ribozyme fitness (log ratio)” value: -1.51 for the first, -2.6 for the second.

Compared with G63A U96C, G47U U55G U116G is lower in “polymerase ribozyme fitness (log ratio)” value: -1.54 for the first, -3.9 for the second.

Going from C70U C80A A90U C123A to A50C G110U, the “polymerase ribozyme fitness (log ratio)” value rises from -6.41 to -1.99.

First: G113U G128C
Second: C56U U59A
The “polymerase ribozyme fitness (log ratio)” value of the first is lower: -4.63 for the first, -0.76 for the second.

First: G47C C73G U81A
Second: C40U G61C
The “polymerase ribozyme fitness (log ratio)” value of the first is lower: -2.91 for the first, -2.59 for the second.

Compared with G10U G42A G45A G77C U78G U96C G128A U131G, C40U C73G is higher in “polymerase ribozyme fitness (log ratio)” value: -3.17 for the first, -0.891 for the second.

First: G71U C114G U132A
Second: G58A C99U G122A
The “polymerase ribozyme fitness (log ratio)” value of the first is higher: -2.34 for the first, -5.04 for the second.

First: C8A C64A
Second: C31U G120U
The “polymerase ribozyme fitness (log ratio)” value of the first is lower: -5.69 for the first, -4.56 for the second.

Compared with A6U A111C, G51A G61U is lower in “polymerase ribozyme fitness (log ratio)” value: -0.0776 for the first, -2.94 for the second.

Going from A2G C15G to G10C A18U C73G G113C, the “polymerase ribozyme fitness (log ratio)” value falls from -3.2 to -5.21.

First: G19A G60A U87A C114G
Second: A2C C11G G17U G51C U55C C56G
The “polymerase ribozyme fitness (log ratio)” value of the first is higher: -3.18 for the first, -4.03 for the second.

Going from C4U A5C G57C A68U C73U C115U C124U to G51U C79G C94A C124A, the “polymerase ribozyme fitness (log ratio)” value rises from -6.74 to -1.56.

Going from A16G G61A to C70U U109C, the “polymerase ribozyme fitness (log ratio)” value falls from -1.13 to -3.68.

Going from G42U A68U C123G U130A to A5U C8U G93A A105G, the “polymerase ribozyme fitness (log ratio)” value rises from -5.54 to -2.84.

First: C28G G63C U129A
Second: G48C A50G G51U C56G G117A
The “polymerase ribozyme fitness (log ratio)” value of the first is higher: -4.76 for the first, -5.49 for the second.

First: G61C G122A U126C G135U
Second: G69C A119G
The “polymerase ribozyme fitness (log ratio)” value of the first is lower: -4.38 for the first, -0.227 for the second.

Going from C15A U92C G110C C115U G127U to C70U U96G U125A, the “polymerase ribozyme fitness (log ratio)” value rises from -6 to -1.32.

Going from G35U G65U A121G to C53A G71C C86U, the “polymerase ribozyme fitness (log ratio)” value rises from -5.82 to -3.57.

First: G57A U130A
Second: C40G C70U
The “polymerase ribozyme fitness (log ratio)” value of the first is higher: -1.13 for the first, -1.65 for the second.

In the case of A46U G63U U96G, the “polymerase ribozyme fitness (log ratio)” value is reported as -2.43.
